{
  "source": "paper doi:10.1101/2022.04.10.487811",
  "about": "(bioRxiv, 2022)",
  "binders": {"B1": {"name": "C143 variant VL T33N-G53V, IgG (antibody, V domains shown)", "VH": "EVQLVESGGGLVQPGGSLRLSCAASGFSVSTKYMTWVRQAPGKGLEWVSVLYSGGSDYYADSVKGRFTISRDNSKNALYLQMNSLRVEDTGVYYCARDSSEVRDHPGHPGRSVGAFDIWGQGTMVTVSS", "VL": "QSALTQPASVSGSPGQSITISCTGTSNDVGSYNLVSWYQQYPGKAPKLLIFEVTKRSSGISNRFSGSKSGNTASLTISGLQGEDEADYYCCSYAGASTFVFGGGTKLTVL"}},
  "biological_target": "SARS-CoV-2 Beta-variant Spike with six stabilizing proline substitutions (S-6P) (SARS-CoV-2 Beta variant, strain)",
  "experiment": "BLI",
  "data": [
    {"binder": "B1", "values": [
      {"measurement": "binding result", "value": "binds"}
    ]}
  ]
}
